Laboratory results: the supplement of paper PMC10065799, “High-throughput profiling of sequence recognition by tyrosine kinases and SH2 domains using bacterial peptide display” (eLife, 2023)

Columns and labels:
SHP2-C SH2 = assay: SH2 binding enrichment of the phosphorylated peptide, bacterial display (enrichment ratio); higher = better substrate or ligand; peptides without Tyr show the background
c-Src SH2 = assay: as above
Grb2 SH2 = Grb2 SH2 (UniProt P62993); assay: as above
Fyn = Fyn (UniProt P06241); assay: phosphorylation enrichment, bacterial display (enrichment ratio); higher = better substrate or ligand; peptides without Tyr show the background
Fes = Fes (UniProt P07332); assay: as above
AncSZ = assay: as above
FGFR1 = FGFR1 (UniProt P11362); assay: as above
EPHB2 = EPHB2 (UniProt P29323); assay: as above
MERTK = MERTK (UniProt Q12866); assay: as above
FGFR3 = FGFR3 (UniProt P22607); assay: as above
Fer (mouse) = assay: as above
Jak2 = Jak2 (UniProt O60674); assay: as above
c-Abl (mouse) = assay: as above
EPHB1 = EPHB1 (UniProt P54762); assay: as above
Hck = Hck (UniProt P08631); assay: as above
c-Src = assay: as above
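For SH2 binding enrichment of the phosphorylated peptide, bacterial display in this document: peptide library displayed on the E. coli surface as eCPX fusions, selected cells deep-sequenced, score is each peptide's frequency after selection divided by its frequency in the input.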
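For phosphorylation enrichment, bacterial display in this document: 11-residue human phosphosite peptides and single-mutation variants displayed on the E. coli surface, counted by deep sequencing, each peptide's frequency after selection divided by its frequency in the unselected input library; frequency after pTyr selection over input frequency; kinase dosed for 20-30% of maximal phosphorylation in three min.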

Chain of FGFR1 (P11362 whole entry, looked up): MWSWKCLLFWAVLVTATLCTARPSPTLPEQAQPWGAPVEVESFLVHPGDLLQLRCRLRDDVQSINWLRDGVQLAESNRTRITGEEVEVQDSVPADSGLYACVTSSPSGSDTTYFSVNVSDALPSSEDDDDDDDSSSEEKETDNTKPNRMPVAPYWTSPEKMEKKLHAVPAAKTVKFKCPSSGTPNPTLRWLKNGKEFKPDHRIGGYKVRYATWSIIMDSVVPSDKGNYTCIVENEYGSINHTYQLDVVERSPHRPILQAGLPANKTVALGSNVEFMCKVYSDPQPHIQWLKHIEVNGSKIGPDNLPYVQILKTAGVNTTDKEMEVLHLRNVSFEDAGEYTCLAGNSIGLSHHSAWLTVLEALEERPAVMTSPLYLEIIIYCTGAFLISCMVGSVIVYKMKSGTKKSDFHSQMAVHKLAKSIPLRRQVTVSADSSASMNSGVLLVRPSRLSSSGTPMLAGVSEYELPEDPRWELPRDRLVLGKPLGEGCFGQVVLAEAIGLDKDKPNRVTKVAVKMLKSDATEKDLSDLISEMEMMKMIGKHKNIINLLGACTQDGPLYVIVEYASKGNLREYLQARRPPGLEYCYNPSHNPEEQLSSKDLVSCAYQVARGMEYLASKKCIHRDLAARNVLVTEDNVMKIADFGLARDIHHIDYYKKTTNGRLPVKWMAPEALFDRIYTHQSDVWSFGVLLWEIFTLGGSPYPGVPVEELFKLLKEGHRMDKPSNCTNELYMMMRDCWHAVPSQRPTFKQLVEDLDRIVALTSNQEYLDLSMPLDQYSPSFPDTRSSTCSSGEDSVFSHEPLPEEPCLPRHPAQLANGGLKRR
Chain of Fes (P07332 whole entry, looked up): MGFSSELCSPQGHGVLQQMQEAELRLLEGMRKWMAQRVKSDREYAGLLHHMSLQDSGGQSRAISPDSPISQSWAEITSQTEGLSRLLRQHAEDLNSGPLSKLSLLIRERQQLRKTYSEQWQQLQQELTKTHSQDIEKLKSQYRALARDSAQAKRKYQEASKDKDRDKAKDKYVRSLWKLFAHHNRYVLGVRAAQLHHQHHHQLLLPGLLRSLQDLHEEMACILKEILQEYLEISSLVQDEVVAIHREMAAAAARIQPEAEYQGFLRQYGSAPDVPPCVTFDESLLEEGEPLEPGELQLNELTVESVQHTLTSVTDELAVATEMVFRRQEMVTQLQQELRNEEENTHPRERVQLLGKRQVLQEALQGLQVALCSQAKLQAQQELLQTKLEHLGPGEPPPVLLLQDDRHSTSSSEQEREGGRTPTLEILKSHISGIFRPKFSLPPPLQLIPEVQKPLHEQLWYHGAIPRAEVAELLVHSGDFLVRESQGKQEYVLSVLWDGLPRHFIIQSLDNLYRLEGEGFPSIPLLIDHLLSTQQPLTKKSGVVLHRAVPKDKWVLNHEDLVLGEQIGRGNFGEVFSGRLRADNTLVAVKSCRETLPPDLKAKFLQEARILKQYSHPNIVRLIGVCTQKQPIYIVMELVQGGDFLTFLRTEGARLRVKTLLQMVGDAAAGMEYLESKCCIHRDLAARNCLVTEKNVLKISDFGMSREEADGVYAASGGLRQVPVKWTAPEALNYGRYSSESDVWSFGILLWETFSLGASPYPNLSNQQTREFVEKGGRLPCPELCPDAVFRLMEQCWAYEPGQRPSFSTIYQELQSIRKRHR
Chain of FGFR3 (P22607 whole entry, looked up): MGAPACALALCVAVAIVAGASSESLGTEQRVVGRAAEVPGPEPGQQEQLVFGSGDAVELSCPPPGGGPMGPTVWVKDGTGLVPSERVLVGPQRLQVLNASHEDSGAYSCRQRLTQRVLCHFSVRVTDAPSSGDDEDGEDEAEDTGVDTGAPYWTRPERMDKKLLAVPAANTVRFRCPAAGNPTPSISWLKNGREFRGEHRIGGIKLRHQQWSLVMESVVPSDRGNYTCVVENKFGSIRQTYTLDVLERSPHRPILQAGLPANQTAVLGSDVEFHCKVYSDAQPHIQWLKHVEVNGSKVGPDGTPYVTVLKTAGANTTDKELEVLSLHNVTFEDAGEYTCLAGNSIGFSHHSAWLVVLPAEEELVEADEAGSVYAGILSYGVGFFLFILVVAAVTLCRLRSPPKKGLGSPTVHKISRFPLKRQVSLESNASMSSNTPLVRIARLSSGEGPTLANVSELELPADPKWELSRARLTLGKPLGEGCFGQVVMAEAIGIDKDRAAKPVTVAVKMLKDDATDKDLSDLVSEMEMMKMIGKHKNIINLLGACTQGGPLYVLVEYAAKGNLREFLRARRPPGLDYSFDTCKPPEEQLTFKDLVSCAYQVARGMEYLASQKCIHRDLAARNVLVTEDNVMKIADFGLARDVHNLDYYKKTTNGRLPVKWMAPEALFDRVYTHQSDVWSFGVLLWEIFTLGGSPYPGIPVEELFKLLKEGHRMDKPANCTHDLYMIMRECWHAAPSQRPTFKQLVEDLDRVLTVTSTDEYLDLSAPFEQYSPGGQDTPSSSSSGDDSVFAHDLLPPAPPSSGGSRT
Chain of Jak2 (O60674 whole entry, looked up): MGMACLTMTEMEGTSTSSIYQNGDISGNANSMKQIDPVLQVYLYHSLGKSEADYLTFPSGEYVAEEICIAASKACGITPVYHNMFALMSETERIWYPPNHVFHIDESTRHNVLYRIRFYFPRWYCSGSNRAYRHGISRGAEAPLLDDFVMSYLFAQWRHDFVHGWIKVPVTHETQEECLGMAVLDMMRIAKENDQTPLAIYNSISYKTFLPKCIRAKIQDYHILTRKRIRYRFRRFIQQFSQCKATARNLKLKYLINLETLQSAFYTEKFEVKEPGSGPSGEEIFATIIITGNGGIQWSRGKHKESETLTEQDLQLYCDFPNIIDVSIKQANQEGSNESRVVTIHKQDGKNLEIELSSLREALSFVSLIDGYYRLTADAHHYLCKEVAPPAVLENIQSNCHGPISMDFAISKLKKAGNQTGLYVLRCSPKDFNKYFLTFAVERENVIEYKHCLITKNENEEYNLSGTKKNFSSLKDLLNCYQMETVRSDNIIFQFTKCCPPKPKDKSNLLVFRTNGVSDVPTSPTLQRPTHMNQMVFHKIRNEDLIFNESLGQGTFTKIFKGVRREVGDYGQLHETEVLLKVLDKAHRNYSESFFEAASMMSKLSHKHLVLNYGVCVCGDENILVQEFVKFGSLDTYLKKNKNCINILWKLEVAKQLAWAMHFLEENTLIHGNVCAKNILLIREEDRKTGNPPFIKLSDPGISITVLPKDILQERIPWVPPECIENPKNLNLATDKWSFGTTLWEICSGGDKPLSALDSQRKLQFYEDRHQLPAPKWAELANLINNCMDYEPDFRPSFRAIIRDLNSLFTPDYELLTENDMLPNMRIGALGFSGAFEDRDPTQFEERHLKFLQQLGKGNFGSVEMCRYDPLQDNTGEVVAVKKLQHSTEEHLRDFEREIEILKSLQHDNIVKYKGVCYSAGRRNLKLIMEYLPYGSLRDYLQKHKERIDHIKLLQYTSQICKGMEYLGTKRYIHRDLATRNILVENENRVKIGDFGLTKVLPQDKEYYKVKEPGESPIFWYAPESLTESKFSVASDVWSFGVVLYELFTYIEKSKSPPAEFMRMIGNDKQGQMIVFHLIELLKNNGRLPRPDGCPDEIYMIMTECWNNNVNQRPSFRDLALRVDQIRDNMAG
Chain of Fyn (P06241 whole entry, looked up): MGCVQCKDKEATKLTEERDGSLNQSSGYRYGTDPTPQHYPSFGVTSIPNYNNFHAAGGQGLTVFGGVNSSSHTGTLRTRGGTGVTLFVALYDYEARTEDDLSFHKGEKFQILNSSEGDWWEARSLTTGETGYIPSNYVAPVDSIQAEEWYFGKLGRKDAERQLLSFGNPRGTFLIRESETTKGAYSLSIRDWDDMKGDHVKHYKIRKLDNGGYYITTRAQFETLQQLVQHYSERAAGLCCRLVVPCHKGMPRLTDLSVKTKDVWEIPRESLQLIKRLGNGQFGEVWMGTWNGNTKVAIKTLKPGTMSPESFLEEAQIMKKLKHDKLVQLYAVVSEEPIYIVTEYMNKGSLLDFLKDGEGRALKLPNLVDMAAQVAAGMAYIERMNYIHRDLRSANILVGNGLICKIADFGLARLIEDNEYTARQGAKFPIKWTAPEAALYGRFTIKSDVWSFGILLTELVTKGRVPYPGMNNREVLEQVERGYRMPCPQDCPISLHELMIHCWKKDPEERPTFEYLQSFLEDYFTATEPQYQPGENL
Chain of Hck (P08631 whole entry, looked up): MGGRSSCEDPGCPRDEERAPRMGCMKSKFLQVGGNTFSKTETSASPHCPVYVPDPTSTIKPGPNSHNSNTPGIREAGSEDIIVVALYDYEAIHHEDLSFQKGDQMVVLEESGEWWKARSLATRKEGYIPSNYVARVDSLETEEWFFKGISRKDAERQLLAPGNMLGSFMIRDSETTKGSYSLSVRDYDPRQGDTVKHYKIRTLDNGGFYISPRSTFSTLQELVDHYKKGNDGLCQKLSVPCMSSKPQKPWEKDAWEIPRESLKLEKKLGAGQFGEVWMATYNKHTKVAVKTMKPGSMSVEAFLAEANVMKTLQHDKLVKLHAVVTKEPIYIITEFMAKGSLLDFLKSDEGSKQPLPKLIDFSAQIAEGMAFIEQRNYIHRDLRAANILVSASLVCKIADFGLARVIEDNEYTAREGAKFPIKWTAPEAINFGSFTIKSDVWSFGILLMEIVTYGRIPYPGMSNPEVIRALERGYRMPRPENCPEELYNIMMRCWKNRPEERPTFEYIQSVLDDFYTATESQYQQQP
Chain of Grb2 SH2 (P62993 whole entry, looked up): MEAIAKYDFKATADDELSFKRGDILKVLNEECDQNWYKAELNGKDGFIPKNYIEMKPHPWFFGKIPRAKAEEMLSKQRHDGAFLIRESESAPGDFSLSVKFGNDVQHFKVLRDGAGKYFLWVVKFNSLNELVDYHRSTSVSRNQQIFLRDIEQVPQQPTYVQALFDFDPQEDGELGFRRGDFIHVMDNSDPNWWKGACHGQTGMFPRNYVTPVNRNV

Sequence | SH2 binding enrichment (SHP2-C SH2) | SH2 binding enrichment (c-Src SH2) | SH2 binding enrichment (Grb2 SH2) | phosphorylation enrichment (Fyn) | phosphorylation enrichment (Fes) | phosphorylation enrichment (AncSZ) | phosphorylation enrichment (FGFR1) | phosphorylation enrichment (EPHB2) | phosphorylation enrichment (MERTK) | phosphorylation enrichment (FGFR3) | phosphorylation enrichment (Fer (mouse)) | phosphorylation enrichment (Jak2) | phosphorylation enrichment (c-Abl (mouse)) | phosphorylation enrichment (EPHB1) | phosphorylation enrichment (Hck) | phosphorylation enrichment (c-Src)
SEASFYKSLNL [NGEF_Y289_YF] | 0.535 | 0.401 | 0.642 | 0.403 | 1.27 | 0.98 | 0.395 | 0.522 | 0.471 | 0.692 | 0.57 | 1.1 | 0.852 | 0.589 | 0.488 | 0.505
IRTDAYVQAMT [RPE65_Y89_R91Q] | 0.662 | 0.617 | 0.89 | 0.49 | 0.644 | 0.543 | 0.458 | 0.471 | 0.374 | 0.503 | 0.41 | 0.529 | 0.572 | 0.378 | 0.608 | 0.446
RFLRGYRQYAY [HLA-A_Y137_D140Y] | 0.602 | 0.322 | 0.92 | 1.29 | 1.19 | 1.61 | 0.77 | 0.752 | 0.846 | 0.669 | 0.577 | 4.7 | 1.56 | 1.33 | 0.634 | 1.56
QTWKTYVRQQQ [SFI1_Y164] | 0.96 | 0.756 | 0.95 | 0.526 | 1.02 | 0.914 | 0.411 | 0.685 | 0.456 | 0.738 | 0.446 | 0.766 | 0.673 | 0.524 | 0.402 | 0.37
RYVTRYIYNRE [HLA-DQB1_Y62] | 0.432 | 0.367 | 0.72 | 0.701 | 1.18 | 1.23 | 0.681 | 0.783 | 0.773 | 0.793 | 0.527 | 1.26 | 0.832 | 0.74 | 0.739 | 1.09
PSDSGYSYETI [MAP1B_Y1921] | 0.523 | 7.7 | 1.79 | 0.599 | 1.38 | 1.35 | 0.627 | 0.467 | 0.583 | 0.688 | 0.642 | 0.848 | 0.664 | 0.596 | 0.577 | 0.454
SKLTIYDGRPS [MTM1_Y277_A279G] | 0.638 | 0.439 | 0.94 | 0.539 | 0.674 | 0.713 | 0.456 | 0.499 | 0.463 | 0.508 | 0.409 | 0.589 | 0.508 | 0.367 | 1.44 | 0.612
QKFMAYPSQGG [HLCS_Y236_L237P] | 0.654 | 0.477 | 0.941 | 0.388 | 0.886 | 0.625 | 0.512 | 0.525 | 0.613 | 0.484 | 0.654 | 1.2 | 1.12 | 0.388 | 0.537 | 0.779
KSDVVYTDWKK [ORM1_Y175] | 0.885 | 0.505 | 0.757 | 1.55 | 1.02 | 0.856 | 0.558 | 0.513 | 0.559 | 0.609 | 0.592 | 0.648 | 1.4 | 0.44 | 4.84 | 1.65
VFLGAYDRFLP [SLC22A5_Y486_YF] | 0.852 | 1.06 | 0.908 | 2.96 | 1.02 | 1.19 | 0.704 | 1.58 | 5.13 | 0.656 | 1.18 | 0.976 | 0.782 | 1.01 | 4 | 4.15
FDDIAHIRKTL [PIK3CA_Y1021_Y1021H] | 0.566 | 0.435 | 0.805 | 0.538 | 0.844 | 0.688 | 0.529 | 0.529 | 0.416 | 0.515 | 0.433 | 0.854 | 0.611 | 0.51 | 0.553 | 0.389
RHRSGYVLIAM [EFR3A_Y73] | 2.72 | 1.73 | 2.09 | 0.605 | 1.37 | 1.31 | 0.737 | 0.708 | 0.475 | 0.773 | 1.1 | 0.79 | 0.528 | 0.307 | 0.638 | 0.284
CTTSHYNFMCN [TP53_Y234_I232S_YF] | 1.04 | 4.04 | 1.14 | 0.484 | 0.967 | 0.911 | 0.509 | 0.533 | 0.455 | 0.637 | 0.552 | 0.884 | 0.613 | 0.516 | 0.446 | 0.48
NHQYDYTFHWT [CSNK1A1_Y294_D297H] | 0.938 | 2.86 | 1.15 | 0.602 | 0.938 | 2.13 | 5.52 | 3.07 | 3.15 | 3.88 | 9.26 | 0.892 | 0.7 | 3.18 | 0.758 | 1.84
LKVDVYGRSHK [FUT3_Y222] | 0.621 | 0.561 | 0.715 | 0.324 | 0.869 | 1 | 0.782 | 0.778 | 0.37 | 1.1 | 0.441 | 0.588 | 0.629 | 0.553 | 0.625 | 0.379
YNDSTYNQQLI [ZPLD1_Y198] | 0.371 | 0.568 | 0.784 | 0.479 | 0.738 | 0.801 | 0.495 | 0.465 | 0.435 | 0.471 | 0.491 | 0.612 | 0.533 | 0.521 | 0.506 | 0.51
SSMIDYNLLEK [MYOC_Y479_P481L] | 0.692 | 0.723 | 0.822 | 0.482 | 0.954 | 0.855 | 0.526 | 0.563 | 0.434 | 0.698 | 0.417 | 0.968 | 0.685 | 0.455 | 0.518 | 0.409
TRSFDYMEGED [FGF7_Y58_G62E_YF] | 0.589 | 0.618 | 0.911 | 0.649 | 1.6 | 1.41 | 0.827 | 1.04 | 0.435 | 0.788 | 0.546 | 1.3 | 0.754 | 0.592 | 0.738 | 0.391
EMTRNYIIFIE [BCO2_Y294_G289E] | 0.903 | 0.625 | 1.19 | 0.586 | 1.08 | 1.1 | 0.575 | 0.569 | 0.513 | 0.683 | 0.487 | 1.06 | 0.572 | 0.51 | 0.534 | 0.464
GAVDTYCRHNF [HLA-DRB1_Y107_A102G_YF] | 0.809 | 0.68 | 0.958 | 0.479 | 0.742 | 0.649 | 0.427 | 0.524 | 0.474 | 0.528 | 0.591 | 0.648 | 0.583 | 0.695 | 0.509 | 0.49
PQQLWYTHEKK [UBTF_Y207] | 0.812 | 0.833 | 1.2 | 0.409 | 0.792 | 0.652 | 0.516 | 0.327 | 0.361 | 0.481 | 0.339 | 0.802 | 0.499 | 0.58 | 0.496 | 0.473
LLVVLCKYRCY [PSEN1_Y154_Y154C] | 1.99 | 1.33 | 1.66 | 0.377 | 1.01 | 0.873 | 0.414 | 0.466 | 0.315 | 0.536 | 0.353 | 0.786 | 0.606 | 0.532 | 0.382 | 0.369
SNNFIYKTLGV [FAM83B_Y639_YF] | 0.45 | 0.405 | 0.785 | 0.506 | 0.734 | 0.637 | 0.484 | 0.485 | 0.394 | 0.555 | 0.421 | 0.639 | 0.631 | 0.45 | 0.572 | 0.478
QELRRYLESGV [MICA_Y194_K196E] | 0.596 | 0.397 | 0.729 | 0.772 | 0.812 | 0.597 | 0.62 | 1.54 | 0.49 | 0.662 | 0.486 | 1.16 | 0.616 | 0.749 | 0.489 | 0.465
DLVSEYQQYQD [TUBB3_Y422] | 0.642 | 0.597 | 0.989 | 0.706 | 1.37 | 1.57 | 0.523 | 0.704 | 0.488 | 0.858 | 0.709 | 1.42 | 1.04 | 0.721 | 0.656 | 0.677
DSNPIYSQIWS [FCRL3_Y662] | 0.89 | 0.851 | 1.1 | 12.1 | 14.4 | 1.88 | 6.65 | 21.2 | 11.8 | 5.05 | 19.4 | 1.18 | 14.1 | 20.2 | 12 | 8.52
QFQLKYSETPF [SIX6OS1_Y129_YF] | 1.37 | 0.625 | 1.01 | 0.811 | 1.84 | 1.7 | 0.982 | 1.12 | 1.24 | 1.11 | 0.789 | 2.17 | 1.39 | 0.957 | 0.855 | 0.812
PELIDYGKLRK [ACTN1_Y193] | 0.6 | 0.478 | 0.581 | 0.587 | 0.8 | 0.86 | 0.714 | 0.668 | 0.62 | 0.544 | 0.465 | 0.368 | 0.537 | 0.441 | 0.446 | 0.404
MSIWPYLQKID [MFSD8_Y63] | 0.997 | 0.71 | 0.838 | 0.329 | 0.854 | 0.789 | 0.422 | 0.472 | 0.302 | 0.599 | 0.362 | 0.627 | 0.699 | 0.667 | 0.468 | 0.323
